Holding throughout (details): label: 5'-Cy5; G-quadruplex
In data set [1] the target is T1, NCL RBD2,3 (UniProt P19338 393-560). The data set can be described thus: fluorescence titration; no measurable interaction; Hill fit not possible; up to 50 nM protein; K100: 100 mM KCl, 10 mM lithium cacodylate pH 7.2; 100 nM Cy5-oligonucleotide pre-annealed, 5 min equilibration per protein addition; temperature not stated.
Data set [2] concerns the target T2, NCL RBD1,2 (UniProt P19338 307-466). Description: fluorescence titration; Hill n 0.31; SD exceeds Kd; K100: 100 mM KCl, 10 mM lithium cacodylate pH 7.2; 100 nM Cy5-oligonucleotide pre-annealed, 5 min equilibration per protein addition; temperature not stated.
The target in data set [3] is T1, NCL RBD2,3. The data set can be described thus: fluorescence titration; Hill n 0.49; SD exceeds Kd; K100: 100 mM KCl, 10 mM lithium cacodylate pH 7.2; 100 nM Cy5-oligonucleotide pre-annealed, 5 min equilibration per protein addition; temperature not stated.
The target in data set [4] is T2, NCL RBD1,2. The data set can be described thus: fluorescence titration; Hill n 0.33; K100: 100 mM KCl, 10 mM lithium cacodylate pH 7.2; 100 nM Cy5-oligonucleotide pre-annealed, 5 min equilibration per protein addition; temperature not stated.
The target in data set [5] is T2, NCL RBD1,2. Description: fluorescence titration; Hill n 0.24; K100: 100 mM KCl, 10 mM lithium cacodylate pH 7.2; 100 nM Cy5-oligonucleotide pre-annealed, 5 min equilibration per protein addition; temperature not stated.
Data set [6] concerns the target T2, NCL RBD1,2. Description: fluorescence titration; Hill n 0.20; SD exceeds Kd; K100: 100 mM KCl, 10 mM lithium cacodylate pH 7.2; 100 nM Cy5-oligonucleotide pre-annealed, 5 min equilibration per protein addition; temperature not stated.
The target in data set [7] is T1, NCL RBD2,3. Description: fluorescence titration; Hill n 2.08; K100: 100 mM KCl, 10 mM lithium cacodylate pH 7.2; 100 nM Cy5-oligonucleotide pre-annealed, 5 min equilibration per protein addition; temperature not stated.
Data set [8] deals with T1, NCL RBD2,3. Description: fluorescence titration; Hill n 0.54; K100: 100 mM KCl, 10 mM lithium cacodylate pH 7.2; 100 nM Cy5-oligonucleotide pre-annealed, 5 min equilibration per protein addition; temperature not stated.
The target of data set [9] is T2, NCL RBD1,2. The data set can be described thus: fluorescence titration; Hill n 0.37; main text prints 4.6 nM (conflict with Table S4); K100: 100 mM KCl, 10 mM lithium cacodylate pH 7.2; 100 nM Cy5-oligonucleotide pre-annealed, 5 min equilibration per protein addition; temperature not stated.
Data set [10] has as its target T2, NCL RBD1,2. Description: fluorescence titration; Hill n 1.89; K100: 100 mM KCl, 10 mM lithium cacodylate pH 7.2; 100 nM Cy5-oligonucleotide pre-annealed, 5 min equilibration per protein addition; temperature not stated.

Usually Kd stands for a measure of binding affinity in units of concentration. A high value points to lower affinity.

T2 sequence (P19338 307-466): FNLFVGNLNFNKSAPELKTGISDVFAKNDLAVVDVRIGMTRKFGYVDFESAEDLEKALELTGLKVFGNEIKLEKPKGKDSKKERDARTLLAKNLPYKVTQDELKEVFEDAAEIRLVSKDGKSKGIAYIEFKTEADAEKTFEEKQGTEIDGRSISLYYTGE
T1 sequence (P19338 393-560): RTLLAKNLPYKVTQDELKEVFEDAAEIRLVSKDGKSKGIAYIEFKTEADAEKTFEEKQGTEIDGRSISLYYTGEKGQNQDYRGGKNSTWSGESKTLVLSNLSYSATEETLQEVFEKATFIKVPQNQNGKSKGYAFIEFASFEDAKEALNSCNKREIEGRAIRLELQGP

Take TGGTGGTGGTGGTTTTGGTGGTGGTGGT (structured_DNA) [Cy5-AT14T]: in [1], the binding result was “no binding”. For the same molecule, the Kd in [2] stood at 8.34 ± 13.2 nM.

Regarding GGTGGTGGTGGTTGGTGGTGGTGG (structured_DNA) [Cy5-AT14-T2], the dissociation constant Kd in [3] turned out to be 5.37 ± 7.21 nM; in data set [4], 0.01 ± 0.01 nM. In turn, TGGTGGTGGTGGTTTGGTGGTGGTGGT (structured_DNA) [Cy5-AT14T-T1] came in with a dissociation constant Kd in data set [5] of 3.39 ± 0.58 nM. Regarding GGTGGTGGTGGTTTGGTGGTGGTGG (structured_DNA) [Cy5-AT14-T1], the figures for the dissociation constant Kd in data set [6] and in data set [7] were 1.4 nM and 2.16 ± 0.37 nM, respectively. For the molecule GGTGGTGGTGGTTTTGGTGGTGGTGG (structured_DNA) [Cy5-AT14], the results for the dissociation constant Kd in [8] and in data set [9] were 0.08 ± 0.01 nM and 0.46 ± 0.12 nM, respectively. For the molecule TGGTGGTGGTGGTTGGTGGTGGTGGT (structured_DNA) [Cy5-AT14T-T2], the dissociation constant (Kd) in data set [10] was 1.48 ± 0.2 nM. Further, in data set [1], the binding result is recorded as “no binding”.
